Results on one molecule are retold here after patent publication US20230190752A1 (WASHINGTON UNIVERSITY, published 2023).

The assay addresses T1, Valosin-Containing Protein phosphorylated at Ser784 (pSer^784-VCP), endogenous, from genotoxin-treated human … (human, UniProt P55072 2-806, phosphoserine at 784).
T1 construct: Endogenous protein in lysates or fixed cells (HeLa, MDA-MB-231, U2OS and others) after SN38, etoposide or HU; it is tied to the assayed protein only through that definition; also called DNA-damage-induced ~100-kDa protein
As to the kind of experiment: co-IP, western blot (FIG. 15B, 14B). As for the experimental part:
Antibody-bound proteins were analyzed by Western blot for K48-ubiquitin, total VCP and pSer784-VCP. Same amount of control IgG was used to bind the etoposide-treated HeLa samples to control for non-specific binding. […] Samples were analyzed by Western blot for K48-ubiquitin, NPL4, and UFD1. Total VCP bound by the antibodies were visualized by silver staining. […] YFP-FLAG was expressed as a control.
Ser784 Phosphorylation Decreases VCP Association with NPL4/UFD1 and Polyubiquitinated Proteins: To study the regulatory mechanism of Ser784 phosphorylation, the effects on the VCP interaction with protein substrates were first examined. Total VCP (by a pan-VCP antibody) or pSer784-VCP (by 3E4) from etoposide or HU-treated HeLa cell lysates were immunoprecipitated and immunoblotted for co-absorbed K48-polyubiquitinated proteins. […] To better separate pSer784-VCP from unphosphorylated VCP, sequential pull-downs were performed from etoposide-treated HeLa cell lysates to first deplete pSer784-VCP using 3E4 and subsequently capture the remaining unphosphorylated VCP by the pan-antibody. […] Based on the levels of VCP in the input and supernatants after each pull-down, it is evident that Ser784 is phosphorylated at high stoichiometry in response to DNA damage (>50% of total VCP after overnight etoposide treatment) (FIG. 15A).
For orientation: Immunoblotting shows a protein as a band on a membrane.

T1 sequence (P55072 2-806 limits assumed): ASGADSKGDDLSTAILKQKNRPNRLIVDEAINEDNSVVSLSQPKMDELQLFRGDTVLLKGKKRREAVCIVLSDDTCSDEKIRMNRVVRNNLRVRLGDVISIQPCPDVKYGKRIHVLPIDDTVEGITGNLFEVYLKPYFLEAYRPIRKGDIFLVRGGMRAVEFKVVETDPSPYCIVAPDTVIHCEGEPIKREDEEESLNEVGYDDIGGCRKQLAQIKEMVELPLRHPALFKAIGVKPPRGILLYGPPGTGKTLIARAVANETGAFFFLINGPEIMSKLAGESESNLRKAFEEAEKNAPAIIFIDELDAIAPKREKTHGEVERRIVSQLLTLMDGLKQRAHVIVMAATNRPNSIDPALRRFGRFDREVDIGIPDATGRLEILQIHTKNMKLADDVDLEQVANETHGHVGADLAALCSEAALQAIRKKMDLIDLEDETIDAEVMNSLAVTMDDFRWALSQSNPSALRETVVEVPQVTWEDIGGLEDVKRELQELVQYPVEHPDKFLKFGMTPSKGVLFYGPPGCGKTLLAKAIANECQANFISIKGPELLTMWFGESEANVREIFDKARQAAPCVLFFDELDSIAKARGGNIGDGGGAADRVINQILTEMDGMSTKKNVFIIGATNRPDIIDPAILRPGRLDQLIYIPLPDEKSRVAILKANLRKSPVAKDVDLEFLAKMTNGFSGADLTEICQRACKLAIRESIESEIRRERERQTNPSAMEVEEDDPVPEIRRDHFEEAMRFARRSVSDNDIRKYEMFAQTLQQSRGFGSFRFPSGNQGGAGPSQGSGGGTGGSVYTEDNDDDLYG

B1: NPL4 (other, UniProt Q8TAT6 2-608, looked up)
chain: AESIIIRVQSPDGVKRITATKRETAATFLKKVAKEFGFQNNGFSVYINRNKTGEITASSNKSLNLLKIKHGDLLFLFPSSLAGPSSEMETSVPPGFKVFGAPNVVEDEIDQYLSKQDGKIYRSRDPQLCRHGPLGKCVHCVPLEPFDEDYLNHLEPPVKHMSFHAYIRKLTGGADKGKFVALENISCKIKSGCEGHLPWPNGICTKCQPSAITLNRQKYRHVDNIMFENHTVADRFLDFWRKTGNQHFGYLYGRYTEHKDIPLGIRAEVAAIYEPPQIGTQNSLELLEDPKAEVVDEIAAKLGLRKVGWIFTDLVSEDTRKGTVRYSRNKDTYFLSSEECITAGDFQNKHPNMCRLSPDGHFGSKFVTAVATGGPDNQVHFEGYQVSNQCMALVRDECLLPCKDAPELGYAKESSSEQYVPDVFYKDVDKFGNEITQLARPLPVEYLIIDITTTFPKDPVYTFSISQNPFPIENRDVLGETQDFHSLATYLSQNTSSVFLDTISDFHLLLFLVTNEVMPLQDSISLLLEAVRTRNEELAQTWKRSEQWATIEQLCSTVGGQLPGLHEYGAVGGSTHTATAAMWACQHCTFMNQPGTGHCEMCSLPRT
notes: Detected by western blot in VCP co-immunoprecipitates; also called cofactor NPL4
Turning to B1, the binding result is on record as “binds”.
